B1: ssoMCM mutant M3 (L325A) (enzyme, Sulfolobus solfataricus, UniProt Q9UXG1 1-686, looked up)
chain: MEIPSKQIDYRDVFIEFLTTFKGNNNQNKYIERINELVAYRKKSLIIEFSDVLSFNENLAYEIINNTKIILPILEGALYDHILQLDPTYQRDIEKVHVRIVGIPRVIELRKIRSTDIGKLITIDGILVKVTPVKERIYKATYKHIHPDCMQEFEWPEDEEMPEVLEMPTICPKCGKPGQFRLIPEKTKLIDWQKAVIQERPEEVPSGQLPRQLEIILEDDLVDSARPGDRVKVTGILDIKQDSPVKRGSRAVFDIYMKVSSIEVSQKVLDEVIISEEDEKKIKDLAKDPWIRDRIISSIAPSIYGHWELKEALALALFGGVPKVAEDTRIRGDIHILIIGDPGTAKSQMLQFISRVAPRAVYTTGKGSTAAGLTAAVVREKGTGEYYLEAGALVLADGGIAVIDEIDKMRDEDRVAIHEAMEQQTVSIAKAGIVAKLNARAAVIAAGNPKFGRYISERPVSDNINLPPTILSRFDLIFILKDQPGEQDRELANYILDVHSGKSTKNIIDIDTLRKYIAYARKYVTPKITSEAKNLITDFFVEMRKKSSETPDSPILITPRQLEALIRISEAYAKMALKAEVTREDAERAINIMRLFLESVGVDMESGKIDIDTIMTGKPKSAREKMMKIIEIIDSLAVSSECAKVKDILKEAQQVGIEKSNIEKLLTDMRKSGIIYEAKPECYKKV
notes: MCM of Sulfolobus solfataricus with L325A; source: cloned and purified (Resource Q anion exchange, size-exclusion chromatography) as described previously [15]
B2: ssoMCM mutant M4 (VL324AA) (enzyme, Sulfolobus solfataricus, UniProt Q9UXG1 1-686, looked up)
chain: MEIPSKQIDYRDVFIEFLTTFKGNNNQNKYIERINELVAYRKKSLIIEFSDVLSFNENLAYEIINNTKIILPILEGALYDHILQLDPTYQRDIEKVHVRIVGIPRVIELRKIRSTDIGKLITIDGILVKVTPVKERIYKATYKHIHPDCMQEFEWPEDEEMPEVLEMPTICPKCGKPGQFRLIPEKTKLIDWQKAVIQERPEEVPSGQLPRQLEIILEDDLVDSARPGDRVKVTGILDIKQDSPVKRGSRAVFDIYMKVSSIEVSQKVLDEVIISEEDEKKIKDLAKDPWIRDRIISSIAPSIYGHWELKEALALALFGGVPKAAEDTRIRGDIHILIIGDPGTAKSQMLQFISRVAPRAVYTTGKGSTAAGLTAAVVREKGTGEYYLEAGALVLADGGIAVIDEIDKMRDEDRVAIHEAMEQQTVSIAKAGIVAKLNARAAVIAAGNPKFGRYISERPVSDNINLPPTILSRFDLIFILKDQPGEQDRELANYILDVHSGKSTKNIIDIDTLRKYIAYARKYVTPKITSEAKNLITDFFVEMRKKSSETPDSPILITPRQLEALIRISEAYAKMALKAEVTREDAERAINIMRLFLESVGVDMESGKIDIDTIMTGKPKSAREKMMKIIEIIDSLAVSSECAKVKDILKEAQQVGIEKSNIEKLLTDMRKSGIIYEAKPECYKKV
notes: MCM of Sulfolobus solfataricus with the double mutation VL324AA (V324 and L325 to alanine); source: cloned and purified (Resource Q anion exchange, size-exclusion chromatography) as described previously [15]

Key:
[1] = target: ssoMCM mutant M7 (ED327AA) (Sulfolobus solfataricus) (UniProt Q9UXG1); test: SEC; Superose 6 size exclusion column, 250 mM NaCl; ~0.5 mg of protein; markers ferritin (440 kD) and aldolase (158 kD); self-association to the hexamer
[2] = substrate: Nc1ncnc2c1ncn2[C@@H]1O[C@H](COP(=O)(O)OP(=O)(O)OP(=O)(O)O)[C@@H](O)[C@H]1O; test: EnzChek phosphate release ATPase assay; format: biochemical, Saccharolobus solfataricus; conditions: no DNA, per monomeric MCM subunit, unit nM
Source text: EnzChek phosphate release ATPase assay on ssoMCM

[3] = target: the molecule itself; test: SEC; Superose 6 size exclusion column, 250 mM NaCl; ~0.5 mg of protein; markers ferritin (440 kD) and aldolase (158 kD); self-association to the hexamer

Molecule	stoichiometry N [1]	Km ([2]; mutant M3) [nM]	kcat ([2]; mutant M3) [s⁻¹]	stoichiometry N [3]	Km ([2]; mutant M4, printed VL324AA) [nM]	kcat ([2]; mutant M4, printed VL324AA) [s⁻¹]
ssoMCM mutant M7 (ED327AA) (from UniProt Q9UXG1 1-686) (enzyme)	6					
B1		270 ± 40	0.0783 ± 0.005	6		
B2				6	230 ± 10	0.065 ± 0.00167

Source: PMC2933578, “Mutational analysis of an archaeal minichromosome maintenance protein exterior hairpin reveals critical residues for helicase activity and DNA binding” (BMC Molecular Biology, 2010)
